Experimental data from PMC4201622.

Key:
[1] = target: RPA heterotrimer (RPA70/RPA32/RPA14), full length (UniProt P27694;P15927;P35244 1-616;1-270;1-121); experiment: EMSA
[2] = target: RPA70 DBD-F (N-terminal domain) fused to MBP (UniProt P27694 1-120); experiment: EMSA
Sequence of RPA70 DBD-F (N-terminal domain) fused to MBP (P27694 1-120): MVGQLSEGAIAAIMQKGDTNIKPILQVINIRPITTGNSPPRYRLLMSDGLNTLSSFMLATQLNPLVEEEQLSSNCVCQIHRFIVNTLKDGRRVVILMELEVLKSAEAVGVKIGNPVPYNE

Sequence of RPA heterotrimer (RPA70/RPA32/RPA14), full length (P27694 whole entry, chain 1 of 3, the tested form may be a part): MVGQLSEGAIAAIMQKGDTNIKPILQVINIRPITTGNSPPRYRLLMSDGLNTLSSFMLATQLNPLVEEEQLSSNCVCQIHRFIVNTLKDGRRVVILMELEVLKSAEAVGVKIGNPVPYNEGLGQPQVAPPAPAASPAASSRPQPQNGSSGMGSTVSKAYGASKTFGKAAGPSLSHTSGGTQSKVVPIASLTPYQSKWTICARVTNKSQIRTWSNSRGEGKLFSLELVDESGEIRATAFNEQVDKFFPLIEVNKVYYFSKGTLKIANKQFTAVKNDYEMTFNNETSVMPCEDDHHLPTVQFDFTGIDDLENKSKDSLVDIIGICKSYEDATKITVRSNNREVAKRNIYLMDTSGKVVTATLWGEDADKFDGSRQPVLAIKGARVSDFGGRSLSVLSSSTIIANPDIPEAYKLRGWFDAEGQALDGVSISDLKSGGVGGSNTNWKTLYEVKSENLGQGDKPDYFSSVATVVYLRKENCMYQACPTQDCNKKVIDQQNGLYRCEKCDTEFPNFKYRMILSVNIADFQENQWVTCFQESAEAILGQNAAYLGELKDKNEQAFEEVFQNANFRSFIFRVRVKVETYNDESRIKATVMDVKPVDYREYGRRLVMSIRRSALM
Sequence of RPA heterotrimer (RPA70/RPA32/RPA14), full length (P15927 whole entry, chain 2 of 3, the tested form may be a part): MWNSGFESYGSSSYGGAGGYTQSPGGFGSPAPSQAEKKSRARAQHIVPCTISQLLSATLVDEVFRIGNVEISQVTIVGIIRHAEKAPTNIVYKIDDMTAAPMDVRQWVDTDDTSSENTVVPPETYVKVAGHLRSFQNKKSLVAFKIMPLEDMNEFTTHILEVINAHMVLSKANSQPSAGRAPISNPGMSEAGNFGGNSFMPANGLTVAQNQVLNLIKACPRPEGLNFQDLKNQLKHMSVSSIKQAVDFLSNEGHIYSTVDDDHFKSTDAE
Sequence of RPA heterotrimer (RPA70/RPA32/RPA14), full length (P35244 whole entry, chain 3 of 3, the tested form may be a part): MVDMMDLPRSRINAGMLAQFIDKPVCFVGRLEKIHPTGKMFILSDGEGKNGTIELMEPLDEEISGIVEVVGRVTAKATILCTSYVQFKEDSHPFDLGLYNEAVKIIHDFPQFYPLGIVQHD

## TTTTTTTTTTTTTTTTTTTTTTTTTTTTTT (ssDNA) [polyT 30mer]
[1]
  binding result: binds
[2]
  binding result: binds
